Earlier results as cited in paper PMC11924945.

Target: CD47 (Homo sapiens) (UniProt Q08722)
Sequence (Q08722 19-323): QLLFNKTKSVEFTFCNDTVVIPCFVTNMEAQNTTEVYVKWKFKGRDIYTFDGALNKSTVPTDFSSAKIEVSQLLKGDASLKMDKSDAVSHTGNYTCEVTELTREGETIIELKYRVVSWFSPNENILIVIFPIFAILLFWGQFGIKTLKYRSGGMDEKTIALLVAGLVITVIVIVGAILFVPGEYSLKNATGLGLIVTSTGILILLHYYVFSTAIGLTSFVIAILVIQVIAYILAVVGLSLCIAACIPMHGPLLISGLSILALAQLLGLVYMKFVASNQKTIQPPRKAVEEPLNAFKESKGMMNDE

Chain of SIRPα allele 2 (P78324 31-373): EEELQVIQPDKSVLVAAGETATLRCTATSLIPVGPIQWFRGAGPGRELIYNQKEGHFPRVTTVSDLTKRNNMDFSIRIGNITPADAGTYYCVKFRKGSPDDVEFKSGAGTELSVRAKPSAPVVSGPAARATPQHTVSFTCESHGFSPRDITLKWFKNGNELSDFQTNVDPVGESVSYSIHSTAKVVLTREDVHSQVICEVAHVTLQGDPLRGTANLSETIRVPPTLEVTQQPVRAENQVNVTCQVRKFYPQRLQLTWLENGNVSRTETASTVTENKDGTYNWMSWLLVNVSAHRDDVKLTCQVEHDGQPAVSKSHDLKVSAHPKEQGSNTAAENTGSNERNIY

For SIRPα allele 2 (from UniProt P78324), the Kd is given as 1000 nM.
